Tests used:
6C = experiment: size exclusion chromatography, self-association
6A = experiment: size exclusion chromatography, self-association
6F = experiment: size exclusion chromatography, self-association
6D = experiment: size exclusion chromatography, self-association
6B = experiment: size exclusion chromatography, self-association
6E = experiment: size exclusion chromatography, self-association
pda8d [1] = experiment: sedimentation equilibrium, monomer-dimer-tetramer model; dimer-to-tetramer self-association
pda8d [2] = experiment: sedimentation equilibrium, monomer-dimer-tetramer model; monomer-to-dimer self-association

With RMARLEAKVAALLAKNRRLEREVARLKALVGER (modifications not checked) [6C] the oligomerization state (N) (6C) was 2.

For RMEKLEDKVRELLRKNRRLEEEVRRLKELVGER (modifications not checked) [6A], the oligomerization state (N) (6A) was 2.

Work on RMAALEAKVAALLAKNAALEAEVAALKALVGER (modifications not checked) [6F] yielded an oligomerization state (N) (6F) of 4.

RMRELEEKVRRLLRKNEDLEREVKRLKELVGER (modifications not checked) [6D] gave an oligomerization state (N) (6D) of 2.

For RMEKLEQKVKELLRKNERLEEEVERLKQLVGER (modifications not checked) [6B], the oligomerization state (N) (6B) was 2.

RMNTLERKVAKLLSKNANLEHEVNTLKQLVGER (modifications not checked) [6E] showed an oligomerization state (N) (6E) of 2.

Binder KPYTARIKGRTFSNEKELRDFLETFTGR (modifications not checked) [pda8d] has a Kd (pda8d [1]) greater than 4000 µM and a Kd (pda8d [2]) of 500 to 1500 µM.

Source: patent publication US6950754
